Results reported in article PMC2577774 (Journal of molecular biology, 2008).

Target: the molecule itself
Assay: native MS

B1: gp3(Δ1–152), C-terminal truncate of P22 terminase small subunit gp3 lacking ten amino acids (domain or fragment, bacteriophage P22, UniProt P04893 1-152, looked up)
chain: MAAPKGNRFWEARSSHGRNPKFESPEALWAACCEYFEWVEANPLWEMKAFSYQGEVIQEPIAKMRAMTITGLTLFIDVTLETWRTYRLREDLSEVVTRAEQVIYDQKFSGAAADLLNANIIARDLGLKEQSQVEDVTPDKGDRDKRRSRIKE
For B1, the “stoichiometry N” value was 9.
